# Laboratory results: article PMC11190223, “Identification of sulfakinin receptor regulating feeding behavior and hemolymph trehalose homeostasis in the silkworm, Bombyx mori” (Scientific Reports, 2024)
# Where no end group is shown, it is not given here. [ ]: non-standard residue; d: D form. sY = N[C@@H](Cc1ccc(OS(=O)(=O)O)cc1)C(=O)O
# T1: BNGR-A9 expressed in BmN cells (pIZT-BNGR-A9) (Bombyx mori) (UniProt B3XXM2)
# T1 sequence: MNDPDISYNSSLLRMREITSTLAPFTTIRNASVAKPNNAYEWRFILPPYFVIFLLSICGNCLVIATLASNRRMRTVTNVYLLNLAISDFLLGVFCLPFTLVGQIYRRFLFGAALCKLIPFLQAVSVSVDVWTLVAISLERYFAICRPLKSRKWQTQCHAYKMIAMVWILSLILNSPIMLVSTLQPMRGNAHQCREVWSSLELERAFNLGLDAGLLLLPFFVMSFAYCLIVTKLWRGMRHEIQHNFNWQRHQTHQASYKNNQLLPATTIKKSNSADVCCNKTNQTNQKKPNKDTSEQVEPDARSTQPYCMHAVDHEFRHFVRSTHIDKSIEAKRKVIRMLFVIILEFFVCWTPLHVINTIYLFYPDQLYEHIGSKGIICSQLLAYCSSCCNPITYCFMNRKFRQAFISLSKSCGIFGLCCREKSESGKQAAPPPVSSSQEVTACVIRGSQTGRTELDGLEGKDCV
# T2: Flag-BNGR-A9 (Bombyx mori neuropeptide G protein-coupled receptor A9) expressed in HEK293 cells (Bombyx mori) (UniProt B3XXM2)
# T2 sequence: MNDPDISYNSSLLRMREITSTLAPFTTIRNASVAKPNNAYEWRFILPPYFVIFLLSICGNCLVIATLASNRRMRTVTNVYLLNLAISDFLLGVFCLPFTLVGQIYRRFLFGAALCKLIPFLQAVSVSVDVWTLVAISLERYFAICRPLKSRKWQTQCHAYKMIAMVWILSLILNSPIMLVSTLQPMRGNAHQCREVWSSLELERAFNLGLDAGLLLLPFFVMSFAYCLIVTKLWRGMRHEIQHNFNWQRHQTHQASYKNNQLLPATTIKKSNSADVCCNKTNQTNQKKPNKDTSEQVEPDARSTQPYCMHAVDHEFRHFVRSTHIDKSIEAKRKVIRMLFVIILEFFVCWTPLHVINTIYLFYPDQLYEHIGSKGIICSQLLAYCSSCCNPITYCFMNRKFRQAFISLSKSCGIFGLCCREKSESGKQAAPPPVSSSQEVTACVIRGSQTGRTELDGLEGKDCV
# Assays:
# [1] = molecular target: T1, BNGR-A9 expressed in BmN cells (pIZT-BNGR-A9) (Bombyx mori)
# [2] = molecular target: T2, Flag-BNGR-A9 (Bombyx mori neuropeptide G protein-coupled receptor A9) expressed in HEK293 cells (Bombyx mori)
# [3] = molecular target: T1, BNGR-A9 expressed in BmN cells (pIZT-BNGR-A9) (Bombyx mori); remark: listed apart in the source
# [4] = molecular target: T2, Flag-BNGR-A9 (Bombyx mori neuropeptide G protein-coupled receptor A9) expressed in HEK293 cells (Bombyx mori); remark: listed apart in the source
binder,measurement,setting,value
GDDTFDD[sY]GHLRF-NH2 (N-terminus assumed; SMILES CC(C)C[C@H](NC(=O)[C@H](Cc1c[nH]cn1)NC(=O)CNC(=O)[C@H](Cc1ccc(OS(=O)(=O)O)cc1)NC(=O)[C@H](CC(=O)O)NC(=O)[C@H](CC(=O)O)NC(=O)[C@H](Cc1ccccc1)NC(=O)[C@@H](NC(=O)[C@H](CC(=O)O)NC(=O)[C@H](CC(=O)O)NC(=O)CN)[C@@H](C)O)C(=O)N[C@@H](CCCNC(=N)N)C(=O)N[C@@H](Cc1ccccc1)C(N)=O) [Bombyx mori sulfated-sulfakinin],"Fura-2 AM Ca2+ mobilization, dose-response, BmN cells expressing BNGR-A9",[1],51.4 nM
same,"Fura-2 AM Ca2+ mobilization, dose-response 1 nM to 1 uM, HEK293 cells stably expressing BNGR-A9",[2],29 nM
same,"CRE-driven luciferase reporter, dose-response, BmN cells stably expressing BNGR-A9",[3],60 nM
same,"CRE-driven luciferase reporter, dose-response, HEK293 cells stably expressing BNGR-A9",[4],73.3 nM
